Columns and labels:
[1] = molecular target: human EGF-r expressed on the surface of human carcinoma cells (A431, SW948) (human) (UniProt P00533); test: inhibition of [125I]EGF binding to SW948 cells
[2] = molecular target: human EGF-r expressed on the surface of human carcinoma cells (A431, SW948) (human) (UniProt P00533); test: inhibition of [125I]EGF (0.1 nM) binding to A431 cells
[3] = molecular target: Soluble EGF-r purified from A431 cell membranes (Sigma, E-3641) (human) (UniProt P00533); test: BIAcore, solid phase, antigen immobilised at 228 RU
[4] = molecular target: human EGF-r expressed on the surface of human carcinoma cells (A431, SW948) (human) (UniProt P00533); test: cell-based or functional assay

| IC50 [1] [nM] | IC50 [2] [nM] | Kd [3] [nM] | IC50 of inhibition of A431 cell proliferation [4] [nM] | inhibition of EGF-induced tyrosine phosphorylation of EGFr in A431 cells [4] [nM] | inhibition of SW948 cell growth in vitro [4] [%] | Substance |
| --- | --- | --- | --- | --- | --- | --- |
| 0.9 | 3 | 0.057 | 0.125 | 133 | 100 | E7.6.3 antibody (secreted by the hybridoma E7.6.3) |
|  | 15.2 |  | 0.66 |  |  | murine monoclonal antibody 528 |

Reference: patent US20020173629A1
